Measured values as given in US20180230200A1 (CITY OF HOPE, published 2018).

Legend:
[1] = molecular target: T1, UL128 expressed from MVA in BHK-21 cells (human cytomegalovirus, UniProt P16837 28-171); assay: intracellular FC, MVA-infected BHK-21
T1 construct: whole, on cells
T1 sequence: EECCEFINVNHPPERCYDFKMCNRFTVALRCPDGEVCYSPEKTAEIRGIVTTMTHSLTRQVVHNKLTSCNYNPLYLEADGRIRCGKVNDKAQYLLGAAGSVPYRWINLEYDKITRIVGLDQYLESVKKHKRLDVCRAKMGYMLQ
Method: (§1) NAb subunit specificity was evaluated by staining BHK-21 cells infected with different MVA recombinants. One or more vectors were used to co-infect BHK-21 at an MOI of 5. […] Four hours post infection cells were fixed and permeabilized using Cytofix/Cytoperm solution (BD Biosciences). NAbs (1 mg/ml) were diluted 1:500 in perm/wash buffer (BD) and added to the cells for 1 hour at 4° C. […] Cells were washed again and resuspended in PBS/0.1% BSA. Fifteen thousand events were collected using the Gallios Flow Cytometer (Beckman Coulter, Miami, Fla., USA) and analyzed with FlowJo Software (Tree Star, Ashland, Oreg., USA). Uninfected cells and cells infected with MVA-Venus were used as controls. GFP expression was analyzed for confirming MVA infection since all the constructs contain a GFP expression cassette (36, 62).
(§2) In order to determine the antigen specificity of the vaccine-derived NAbs, intracellular flow cytometry (FC) staining of permeabilized BHK-21 cells infected with MVA expressing single subunits or combinations of two or more subunits of the PC was evaluated.

[2] = molecular target: T2, gH/gL/UL130 co-expressed from MVA in BHK-21 cells (human cytomegalovirus, UniProt P12824 24-743; P16832 31-278; P16772 1-214); assay: intracellular FC, MVA-infected BHK-21
T2 construct: whole, on cells
Method: as §1, §2

[3] = molecular target: T3, gH expressed from MVA in BHK-21 cells (human cytomegalovirus, UniProt P12824 24-743); assay: intracellular FC, MVA-infected BHK-21
T3 construct: whole, on cells
Method: as §1, §2

[4] = molecular target: T4, gH/gL co-expressed from MVA in BHK-21 cells (human cytomegalovirus, UniProt P12824 24-743; P16832 31-278); assay: intracellular FC, MVA-infected BHK-21
T4 construct: whole, on cells
Method: as §1, §2

[5] = molecular target: T5, UL128/UL130 co-expressed from MVA in BHK-21 cells (human cytomegalovirus, UniProt P16837 28-171; P16772 1-214); assay: intracellular FC, MVA-infected BHK-21
T5 construct: whole, on cells
Method: as §1, §2

[6] = molecular target: T6, UL131A expressed from MVA in BHK-21 cells (human cytomegalovirus, UniProt F5HET4 19-129); assay: intracellular FC, MVA-infected BHK-21
T6 construct: whole, on cells
Method: as §1, §2

[7] = molecular target: T7, gH/gL/UL128/UL131A co-expressed from MVA in BHK-21 cells (human cytomegalovirus, UniProt P12824 24-743; P16832 31-278; P16837 28-171; F5HET4 19-129); assay: intracellular FC, MVA-infected BHK-21
T7 construct: whole, on cells
Method: as §1, §2

[8] = molecular target: T8, gH/gL/UL128/UL130 co-expressed from MVA in BHK-21 cells (human cytomegalovirus, UniProt P12824 24-743; P16832 31-278; P16837 28-171; P16772 1-214); assay: intracellular FC, MVA-infected BHK-21
T8 construct: whole, on cells
Method: as §1, §2

[9] = molecular target: T9, UL128/UL131A co-expressed from MVA in BHK-21 cells (human cytomegalovirus, UniProt P16837 28-171; F5HET4 19-129); assay: intracellular FC, MVA-infected BHK-21
T9 construct: whole, on cells
Method: as §1, §2

[10] = molecular target: T10, gH/gL/UL131A co-expressed from MVA in BHK-21 cells (human cytomegalovirus, UniProt P12824 24-743; P16832 31-278; F5HET4 19-129); assay: intracellular FC, MVA-infected BHK-21
T10 construct: whole, on cells
Method: as §1, §2

[11] = molecular target: T11, UL130 expressed from MVA in BHK-21 cells (human cytomegalovirus, UniProt P16772 1-214); assay: intracellular FC, MVA-infected BHK-21
T11 construct: whole, on cells
Method: as §1, §2

[12] = molecular target: T12, gH/gL/UL130/UL131A co-expressed from MVA in BHK-21 cells (human cytomegalovirus, UniProt P12824 24-743; P16832 31-278; P16772 1-214; F5HET4 19-129); assay: intracellular FC, MVA-infected BHK-21
T12 construct: whole, on cells
Method: as §1, §2

[13] = molecular target: T13, gH/gL/UL128 co-expressed from MVA in BHK-21 cells (human cytomegalovirus, UniProt P12824 24-743; P16832 31-278; P16837 28-171); assay: intracellular FC, MVA-infected BHK-21
T13 construct: whole, on cells
Method: as §1, §2

[14] = molecular target: T14, UL130/UL131A co-expressed from MVA in BHK-21 cells (human cytomegalovirus, UniProt P16772 1-214; F5HET4 19-129); assay: intracellular FC, MVA-infected BHK-21
T14 construct: whole, on cells
Method: as §1, §2

[15] = molecular target: gH/gL/UL128/UL130/UL131A pentamer complex (PC) of HCMV strain TB40/E virus (human cytomegalovirus strain TB40/E); assay: cell-based or functional assay
[16] = molecular target: gH/gL/UL128/UL130/UL131A pentamer complex (PC) of HCMV strain TR virus (human cytomegalovirus strain TR); assay: cell-based or functional assay
[17] = molecular target: T15, gH/gL/UL128/UL130/UL131A pentamer complex expressed from MVA-PC in BHK-21 cells (human cytomegalovirus, UniProt P12824 24-743; P16832 31-278; P16837 28-171; P16772 1-214; F5HET4 19-129); assay: FC competition, MVA-PC BHK-21; unlabelled row Ab; competitor: biotinylated 54E11
T15 construct: whole, on cells

[18] = molecular target: T15, gH/gL/UL128/UL130/UL131A pentamer …; assay: FC, biotinylated NAb titrated on MVA-PC-infected BHK-21 (cell surface PC)
[19] = molecular target: T15, gH/gL/UL128/UL130/UL131A pentamer …; assay: FC competition, MVA-PC BHK-21; unlabelled row Ab; competitor: biotinylated 18F10
[20] = molecular target: T15, gH/gL/UL128/UL130/UL131A pentamer …; assay: FC competition, MVA-PC BHK-21; unlabelled row Ab; competitor: biotinylated 12E2
[21] = molecular target: T15, gH/gL/UL128/UL130/UL131A pentamer …; assay: FC competition, MVA-PC BHK-21; unlabelled row Ab; competitor: biotinylated 21F6
[22] = molecular target: T15, gH/gL/UL128/UL130/UL131A pentamer …; assay: FC competition, MVA-PC BHK-21; unlabelled row Ab; competitor: biotinylated 1B2
[23] = molecular target: T15, gH/gL/UL128/UL130/UL131A pentamer …; assay: FC competition, MVA-PC BHK-21; unlabelled row Ab; competitor: biotinylated 13B5

Binder	binding result [1]	binding result [2]	binding result [3]	binding result [4]	binding result [5]	binding result [6]	binding result [7]	binding result [8]	binding result [9]	binding result [10]	binding result [11]	binding result [12]	binding result [13]	binding result [14]	IC50, neutralization of TB40/E infection of ARPE-19 [15] [µg/mL]	IC50, neutralization of TB40/E infection of HUVEC [15] [µg/mL]	IC50, neutralization of TB40/E infection of MRC-5 [15] [µg/mL]	IC50, neutralization of TR infection of ARPE-19 [16] [µg/mL]	IC50, neutralization of TR infection of HUVEC [16] [µg/mL]	IC50, neutralization of TR infection of MRC-5 [16] [µg/mL]	other results
4A3 (antibody, V domains shown, also called NAb 4A3) VH: QVQLQQPGPELVRPGASVKLSCKASGYTFTIYWMNWVKQRPGQGLEWIGMIDPSDSETHYNQMFKDKATLTVDKSSSTAYMQLSSLTSEDSAVYYCASSGTGAYWGQGTLLTVSA VL: not shown	no binding	no binding	no binding	no binding	no binding	no binding	no binding	no binding	no binding	no binding	no binding	no binding	no binding	no binding	0.0802	0.0464	> 25	0.0446	0.0102	> 25	
12E2 (antibody, V domains shown, also called NAb 12E2) VH: EVKLVESGGGLVQPGGSLKLSCATSGFTFSDYYMFWVRQTPEKKLEWVAYISNGGGSTYYPDTVKGRFTISRDNDKNTLYLQMSRLKSDDTALYYCVRPKRDFQYLYAMDYWGQGTSVTVSS VL: DIVLTQSPASLAVSLGQRATISCRASKSVSTSGYSYMHWYQQKPGQSPKLLIYLASNLESGVPARFSGSGSGTDFTLNIHPVEDEDAATYYCQHSRELPWTFGGGTKLEIK	no binding	no binding	no binding	no binding	no binding	no binding	no binding	no binding	no binding	no binding	no binding	no binding	no binding	no binding	0.0037	0.006	> 25	0.0031	0.0042	> 25	Binding Inhibition (%) [17]: 0%; EC50 [18]: 1100 pM; Binding Inhibition (%) [19]: 0%; Binding Inhibition (%) [20]: 100%; Binding Inhibition (%) [21]: 0%; Binding Inhibition (%) [22]: 100%; IC50, inhibition of TB40/E cell-to-cell spread in ARPE-19 [15]: 15 µg/mL; IC50, neutralization of TB40/E infection of CTB [15]: 0.0721 µg/mL; IC50, inhibition of TR cell-to-cell spread in ARPE-19 [16]: 17 µg/mL; Binding Inhibition (%) [23]: 0%
1B2 (antibody, V domains shown, also called NAb 1B2) VH: EVQLVESGGVLVKPGGSLKLSCAASGFTFSDYYMYWVRQTPEKRLEWVATISDDGNYTNYPDSVKGRFTISRDNAKNNLYLQMSSLKSEDTAMYYCARGWLLPVFAYWGQGTLVTVSA VL: DIVLTQSPATLSVTPGDSVSLSCRASQSIGNNLHWYQQKSHESPRLLIKYTSQSISGIPSRFSGSGSGTDFTLNINSVETEDFGVYFCQQSNRWPWTFGGGTKLEIK	no binding	no binding	no binding	no binding	no binding	no binding	no binding	no binding	no binding	no binding	no binding	no binding	no binding	no binding	0.0006	0.0005	> 25	0.0003	0.0007	> 25	Binding Inhibition (%) [17]: 0%; EC50 [18]: 320 pM; Binding Inhibition (%) [19]: 0%; Binding Inhibition (%) [20]: 100%; Binding Inhibition (%) [21]: 0%; Binding Inhibition (%) [22]: 100%; IC50, inhibition of TB40/E cell-to-cell spread in ARPE-19 [15]: 1 µg/mL; IC50, neutralization of TB40/E infection of CTB [15]: 0.0126 µg/mL; IC50, inhibition of TR cell-to-cell spread in ARPE-19 [16]: 1.4 µg/mL; Binding Inhibition (%) [23]: 0%
